Assay results: article PMC4495402

B1: human Spt2 histone-binding domain 571–685 (hSpt2C), Q68D10 571-685 (domain or fragment)
chain: GPQRLPFPTGYKRQREYEEEDDDDDEYDSEMEDFIEDEGEPQEEISKHIREIFGYDRKKYKDESDYALRYMESSWKEQQKEEAKSLRLGMQEDLEEMRREEEEMQRRRAKKLKRR
B2: SUMO-tagged hSpt2C(571–685), Q68D10 571-685 (domain or fragment)
chain: B1 chain

Biological target: Xenopus histone H3/H4 tetramer (Xenopus), P84233
Assay: SEC-MALS
Conditions: remark: other sources report otherwise

Row | Binder | stoichiometry N
1 | B1 | 1
2 | B2 | 1
